From the supplement of paper PMC7125110
± gives the standard error. Fewer inactive variants are shown than the library holds.

B1: glmS ribozyme (parent)
chain: AUAAAAGCGCCAGAACUACAGAAAUGUAGUUGACGAGGAGGAGGUUUAUCGAAUUUUCGGCGGAUGCCUCCAAA

Variants of: B1
Assay: self-cleavage kobs at 10000 uM GlcN6P; higher = faster cleavage; RNA array
Conditions: with glucosamine-6-phosphate
Method in brief: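 Sequenced MiSeq chips were the platform: E. coli RNA polymerase transcribed barcoded ribozyme variants on them in situ, and a hybridised Cy3 probe tracked these at 37 °C. After glucosamine-6-phosphate (40 μM to 10 mM) in HEPES/KCl/Mg(OAc)2 buffer was flowed in, tiles were imaged over ~14 h. Signals normalised to baseline and to non-cleaving reference variants were reduced to per-tile medians and fit to one- or two-exponential decays to obtain kobs. kcat and KM were derived through weighted Michaelis–Menten fits across concentrations.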

| Variant | self-cleavage kobs at 10000 uM GlcN6P [s⁻¹] |
| --- | --- |
| C8A U45A A52G C61G C67U | < 1e-05 |
| U45G G59A | 7.24e-05 ± 1.4e-05 |
| G32U A53G U65A | 5.88e-05 ± 1.9e-05 |
| G29C A64G C70U | 3.15e-05 ± 1.4e-05 |
| C11U U31G U49A G62A | < 1e-05 |
| A12U G29C U46A | 0.000658 ± 0.00018 |
| A42G U49A C50G | < 1e-05 |
| A14G C34G G44U A52C C58A G59A G63U C71G | < 1e-05 |
| A14G C16A G29C A53G | 0.000885 ± 0.00021 |
| G9U G41U A42G A52U A64U C68U | < 1e-05 |
| C11U U47A U69A | 4.5e-05 ± 1.5e-05 |
| G40U G62U C68G | < 1e-05 |
| G32U A52G C70A | 8.27e-05 ± 2.1e-05 |
| G32A A52G C70U | 0.000145 ± 1.9e-05 |
| A14G U31G C67U | 0.00162 ± 0.00041 |
| A12G A36C C67G | < 1e-05 |
| G9U G41A C50U G60C | < 1e-05 |
| G38A G59C U65C C70A | < 1e-05 |
| A14U A42G U47C | 0.000229 ± 8.1e-05 |
| A33C G43A G44C C61A C67U | < 1e-05 |
| C50G A53C C71A | 6.73e-05 ± 2.7e-05 |

| Variant | self-cleavage kobs at 10000 uM GlcN6P [s⁻¹] |
| --- | --- |
| G7U G51A U56G | < 1e-05 |
| G40A G51U C68U | < 1e-05 |
| A6G A12G G40U U47C | < 1e-05 |
| A39G U65G C70U | 0.0203 ± 0.0059 |
| U49C C50U U56C | < 1e-05 |
| G13A A42G | 0.000882 ± 0.00023 |
| C16U G32A U57C | 2.6e-05 ± 1.3e-05 |
| C16G U45G U46A | 0.000584 ± 0.00015 |
| C11U C34G G51A A52U C68G | 0.000563 ± 0.00022 |
| U31G A53G U69C | 0.00324 ± 0.00093 |
| U46G C61G C71G | 4.27e-05 ± 1.8e-05 |
| G13U A42G C50U | < 1e-05 |
| G9U A12G C16A | < 1e-05 |
| C11A G44U C67U | 4.33e-05 ± 2.1e-05 |
| U55G C61A C71G | < 1e-05 |
| C8A G13A U46A | < 1e-05 |
| A15C G44A A53G | 5.76e-05 ± 1.5e-05 |
| G37C A42C U57A | < 1e-05 |
| A15C C16G U31A | 0.000253 ± 7.3e-05 |
| U30A G37C C50U | < 1e-05 |
| A12U G44U A52G | 4.49e-05 ± 1.9e-05 |

| Variant | self-cleavage kobs at 10000 uM GlcN6P [s⁻¹] |
| --- | --- |
| A14U G44U U45G U46G | 4.76e-05 ± 1.9e-05 |
| A12G U46G A53U | 9.96e-05 ± 1.8e-05 |
| G29U U47G C67G | 0.000103 ± 1.9e-05 |
| A15G A53U U69G | 5.88e-05 ± 1.8e-05 |
| U54A U57G | 5.94e-05 ± 1.1e-05 |
| U55C U57A | 0.00024 ± 4.6e-05 |
| U30G G35A G40C C68G | < 1e-05 |
| A42C G44C G51U G66A | < 1e-05 |
| A33C A52G U54A | < 1e-05 |
| A12G G29A U46C | 6.56e-05 ± 1.2e-05 |
| C34A G66U C67G | < 1e-05 |
| U57C U65C C71A | < 1e-05 |
| U30G A53U U69A | 4.29e-05 ± 1.8e-05 |
| A15G A33G G59U | < 1e-05 |
| G29U U46G C68U | 0.000229 ± 4.1e-05 |
| C10A A14G G32U A48C G59A | < 1e-05 |
| A42U C58U G59U U65A C70G | < 1e-05 |
| G9C G32C C71U | < 1e-05 |
| U54G G59U C71U | 4.41e-05 ± 1.6e-05 |
| G35C G51U C58U C61G A64G U65A | < 1e-05 |
| C34A G43A U49G C70G | < 1e-05 |

| Variant | self-cleavage kobs at 10000 uM GlcN6P [s⁻¹] |
| --- | --- |
| A36G G37C A42C A48C U65G | < 1e-05 |
| G7A U55G C67U C70G | 4.07e-05 ± 1.8e-05 |
| A39U G63U U65A | < 1e-05 |
| U31A A36G U49G C50U C58A | < 1e-05 |
| C8G G43U G51U U54G | < 1e-05 |
| G13C U55G C58G | 4.29e-05 ± 1.4e-05 |
| A14C G59C G62C | < 1e-05 |
| A14C U57A C67A | 3.08e-05 ± 1.4e-05 |
| U31A G32A G62U | < 1e-05 |
| G9C A39U A42U | < 1e-05 |
| G13U U30A C58U G59U | < 1e-05 |
| U30C A36C U49A | < 1e-05 |
| C8U A36U U45A | < 1e-05 |
| G32U G41A A53G | 0.000262 ± 6.5e-05 |
| A14U U30G U31C | 0.000695 ± 0.00016 |
| A39G G43U G44U C67G | 5.34e-05 ± 1.9e-05 |
| G38A G43C U65G | < 1e-05 |
| G7U C8A G9U U31C A33U | < 1e-05 |
| C11A G13U A53G C67U C68G | 3.78e-05 ± 1.7e-05 |
